First the molecules themselves.
B1: B-cell lymphoma/leukemia 10 (Homo sapiens), O95999 (parent)
chain: MEPTAPSLTEEDLTEVKKDALENLRVYLCEKIIAERHFDHLRAKKILSREDTEEISCRTSSRKRAGKLLDYLQENPKGLDTLVESIRREKTQNFLIQKITDEVLKLRNIKLEHLKGLKCSSCEPFPDGATNNLSRSNSDESNFSEKLRASTVMYHPEGESSTTPFFSTNSSLNLPVLEVGRTENTIFSSTTLPRPGDPGAPPLPPDLQLEEEGTCANSSEMFLPLRSRTVSRQ
partner: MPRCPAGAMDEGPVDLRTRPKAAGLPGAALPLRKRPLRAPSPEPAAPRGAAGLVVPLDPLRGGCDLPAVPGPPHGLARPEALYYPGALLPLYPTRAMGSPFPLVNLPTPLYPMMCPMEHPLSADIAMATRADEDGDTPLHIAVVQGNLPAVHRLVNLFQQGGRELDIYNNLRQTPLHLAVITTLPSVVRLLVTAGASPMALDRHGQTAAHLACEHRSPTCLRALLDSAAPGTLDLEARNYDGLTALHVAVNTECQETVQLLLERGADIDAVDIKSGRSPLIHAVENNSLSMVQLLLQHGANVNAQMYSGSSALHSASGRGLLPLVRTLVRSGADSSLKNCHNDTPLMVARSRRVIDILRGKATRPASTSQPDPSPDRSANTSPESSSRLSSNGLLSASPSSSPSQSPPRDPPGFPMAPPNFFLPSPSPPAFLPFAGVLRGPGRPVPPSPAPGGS

We go through 2 variants from IntAct's records for PubMed 16280327.

The variants in the assay derive from B1. Particulars: with bcl3_human BCL3, P20749.
Turning to S218D, the “effect of a mutation on the interaction” value is on record as “increasing interaction”. As for S231D, the “effect of a mutation on the interaction” value is “increasing interaction”.
